How the values were obtained:
human p40-His [1] = biological target: T1, human p40-His (human, UniProt P29460 23-328); assay: indirect ELISA, p40-His coat 0.25 µg/mL
T1 construct: Made by Akeso Biopharma; construct limits and tag not described; also called human IL-12/IL-23 p40 protein domain; human IL-12/IL-23 p40; not shown: His tag
T1 sequence (looked up): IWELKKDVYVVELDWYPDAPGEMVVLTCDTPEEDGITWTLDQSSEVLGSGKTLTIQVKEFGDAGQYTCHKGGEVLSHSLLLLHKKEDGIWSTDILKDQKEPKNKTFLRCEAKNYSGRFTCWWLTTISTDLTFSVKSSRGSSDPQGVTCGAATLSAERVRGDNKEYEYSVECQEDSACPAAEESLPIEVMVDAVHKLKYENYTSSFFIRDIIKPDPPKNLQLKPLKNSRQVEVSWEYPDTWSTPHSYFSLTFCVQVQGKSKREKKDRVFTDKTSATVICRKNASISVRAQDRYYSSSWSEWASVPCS
Procedure: A microplate was coated with human p40-His (Akeso Biopharma, Inc.; gene of p40: GeneBank NM002187). After incubation at 4° C. for no less than 12 h, the plate was washed with PBST, patted dry and blocked with a solution of 1% BSA in PBS. After blocking was completed, the plate was washed with PBST and patted dry. The antibody diluted with PBST solution in gradient was added into the wells of the plate, and the antibody dilution gradient is detailed in Table 1. The plate containing the test antibody was incubated at 37° C. for 30 min and then washed with PBST and patted dry. […] TMB (Neogen, 308177) was added for color developing for 5 min in the absence of light, and then stop solution was added to terminate the chromogenic reaction. Then the plate was put into a plate reader immediately, and the OD value of each well in the plate was read at 450 nm. The data were analyzed by SoftMax Pro 6.2.1.
The binding EC₅₀ of antibody was calculated by curve fitting using antibody concentration as the abscissa and absorbance value as the ordinate, and the results are shown in Table 4 below.

Human IL12 (His Tag) = biological target: T2, Human IL12 (His Tag) (human, UniProt P29459 23-219; P29460 23-328); assay: FACS competition, IL12-His (40 nM mixed 1:1) on 293T-IL-12Rβ1&IL-23R cells
T2 construct: Bought His-tagged heterodimer
T2 sequence (looked up) 1: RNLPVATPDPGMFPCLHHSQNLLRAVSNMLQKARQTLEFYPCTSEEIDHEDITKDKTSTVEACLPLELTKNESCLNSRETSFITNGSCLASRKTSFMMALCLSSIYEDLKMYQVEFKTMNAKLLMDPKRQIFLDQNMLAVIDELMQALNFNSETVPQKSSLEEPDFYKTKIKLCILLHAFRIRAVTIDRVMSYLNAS
T2 sequence (looked up) 2: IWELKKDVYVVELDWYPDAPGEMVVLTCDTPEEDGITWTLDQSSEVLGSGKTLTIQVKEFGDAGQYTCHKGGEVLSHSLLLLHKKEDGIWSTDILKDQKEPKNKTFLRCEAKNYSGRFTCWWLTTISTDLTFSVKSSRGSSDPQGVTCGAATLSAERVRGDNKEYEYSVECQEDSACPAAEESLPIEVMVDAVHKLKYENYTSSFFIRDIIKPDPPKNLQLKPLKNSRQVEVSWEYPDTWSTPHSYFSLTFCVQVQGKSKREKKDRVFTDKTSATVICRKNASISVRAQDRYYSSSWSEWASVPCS
Procedure: 200 μL of 1% PBSA was added into each sample, and the mixture was centrifuged at 1200 rpm for 5 min to discard the supernatant. According to experiment design, correspondingly diluted antibody (highest final concentration of 60 μg/mL, 3-fold dilution, 8 concentrations in total) and IL12-His (Sino Biological, Cat. No.: CT-050-H08H-20) (40 nM) were mixed at a ratio of 1:1, and a blank control was set. The mixture of antibody and IL12 was incubated on ice for 30 min and then added to the cell precipitate at 100 μL/sample. The resulting mixture was well mixed and incubated on ice for 60 min 200 μL of 1% PBSA was added, and the mixture was centrifuged at 1200 rpm for 5 min to discard the supernatant, and then washed twice. THETM His tag antibody (FITC) (Genscript, Cat. No.: A01620) was diluted at a ratio of 1:500 and added to each tube at 100 μL. The mixture was well mixed and incubated on ice for 40 min in the absence of light. 200 μL of 1% PBSA was added, and the mixture was centrifuged at 1200 rpm for 5 min to discard the supernatant, and then washed twice. 1% PBSA was added at 200 μL/tube, and the cells were resuspended and transferred to a flow cytometry tube for testing.

human p40-His [2] = biological target: T1, human p40-His; assay: BLI (Fortebio), p40-His on HIS1K sensor, antibody 5-0.31 nM, 37 °C, 1:1 fit
Procedure: The sample dilution buffer for H5L9, H5L10, H5L11, H5L12, H5L14, H8L15, Ab123FR1 and ustekinumab was PBS (0.02% Tween-20, 0.1% BSA, pH 7.4). p40-His was immobilized on a HIS1K (manufacturer: Fortebio, Cat. No.: 18-5120) sensor at a concentration of 1 μg/mL for 40 s. The sensor was equilibrated in a buffer for 60 s, and the p40-His immobilized on the sensor bound to the antibody at a concentration of 5-0.31 nM (two-fold dilution) for 120 s, and then the protein dissociated in the buffer for 300 s. The sensor was refreshed with 10 mM glycine solution (pH=1.5). The detection temperature was 37° C., the detection frequency was 0.3 Hz, and the sample plate shaking rate was 500 rpm. The data were analyzed by 1:1 model fitting to obtain affinity constants.

[3] = biological target: T3, human IL-23 (IL-23-His-Biotin) (human, UniProt Q9NPF7 20-189; P29460 23-328, biotin label, site not stated); assay: FACS competition, IL23-His-Biotin (4 µg/mL mixed 1:1) on 293T-IL-12Rβ1&IL-23R cells
T3 construct: Akesobio lot 20161209; His-tagged and biotinylated
T3 sequence (looked up) 1: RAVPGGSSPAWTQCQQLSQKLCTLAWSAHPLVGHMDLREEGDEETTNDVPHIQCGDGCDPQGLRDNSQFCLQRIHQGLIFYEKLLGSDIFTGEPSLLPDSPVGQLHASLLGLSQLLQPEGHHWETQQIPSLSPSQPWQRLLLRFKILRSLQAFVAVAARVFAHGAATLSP
T3 sequence (looked up) 2: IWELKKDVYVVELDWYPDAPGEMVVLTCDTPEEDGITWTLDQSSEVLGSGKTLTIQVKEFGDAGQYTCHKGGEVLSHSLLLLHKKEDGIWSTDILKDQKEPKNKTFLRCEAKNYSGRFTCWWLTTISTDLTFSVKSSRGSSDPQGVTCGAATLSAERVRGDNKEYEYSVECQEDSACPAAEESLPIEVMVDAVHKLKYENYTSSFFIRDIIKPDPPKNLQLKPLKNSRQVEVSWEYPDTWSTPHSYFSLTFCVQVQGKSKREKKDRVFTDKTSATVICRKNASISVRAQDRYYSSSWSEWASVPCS
Procedure: 200 μL of 1% PBSA was added into each sample, and the mixture was centrifuged at 1200 rpm for 5 min to discard the supernatant. According to experiment design, correspondingly diluted antibody (highest concentration of 60 μg/mL, 3-fold dilution, 8 concentrations in total) and human IL23-His-Biotin (Akeso Biopharma, Inc., Lot. No.: 20161209) (4 μg/mL) were mixed at a ratio of 1:1, and a blank control was set. The mixture of antibody and IL23-His-Biotin was incubated on ice for 30 min and then added to the cell precipitate at 100 μL/sample. The resulting mixture was well mixed and incubated on ice for 60 min. 200 μL of 1% PBSA was added, and the mixture was centrifuged at 1200 rpm for 5 min to discard the supernatant, and then washed twice. FITC Steptavidin (Biolegend, Cat. No.: 405202) was diluted at a ratio of 1:500 and added to each tube at 100 μL. The mixture was well mixed and incubated on ice for 40 min in the absence of light. 200 μL of 1% PBSA was added, and the mixture was centrifuged at 1200 rpm for 5 min to discard the supernatant, and then washed twice. 1% PBSA was added at 200 μL/tube, and the cells were resuspended and transferred to a flow cytometry tube for testing.

B1: H8L15 (antibody, human IgG1, kappa, V domains shown)
VH: EVQLVQSGAEVKKPGESLKISCQSSGYTFTSYWIGWVRQMPGQGLEWIGIMSPVDSDIRYNPMFRGQVTMSVDKSSSTAYLQWSSLKASDTAMYYCARRRPGQGYFDFWGQGTMVTVSS
VL: EIVLTQSPATLSASPGERATISCRASQSVGTWVAWYQQKPGQAPRSLIYAASNLQSGIPARFSGSGSGTDFTLTISSLEPEDFAVYYCQQYNIYPYTFGQGTRLEIKR
notes: human IgG1 (P01857) / kappa (P01834) constant regions; also called anti-human IL-12/IL-23 p40 antibody H8L15; H8L15H1L1
Human p40-His [1]
  EC50: 0.059 nM
Human IL12 (His Tag)
  EC50: 1.46 mg/L
Human p40-His [2]
  Kd: 0.0609 nM
  S E (kon): 213000 M⁻¹ s⁻¹
  S E(kdis): 0.000137 s⁻¹
  koff: 0.00018 s⁻¹
  kon: 2.95e+06 M⁻¹ s⁻¹
[3]
  EC50: 0.894 mg/L

Reference: patent publication US20220298235A1 (AKESO BIOPHARMA, published 2022)
